Source: the supplement of paper PMC10567573

B1: PTPN9 (parent)
chain: NKWTVQYNVSPLSWNVAVKFLMAR

Variants of: B1
Experiment: protein stability index of a GFP-peptide fusion (GPS, HEK-293T) (PSI 1-6); higher = more stable
Conditions: c terminus: a fixed tail appended
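Also: lentivirally expressed fusions sorted by FACS into six bins by GFP to DsRed ratio, PSI derived from sequencing read proportions per bin multiplied by bin number.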

Protein stability index of substitutions, site by site:
L12: I 2.07; W 3.11; M 2.17; A 4.28; H 2.66; V 2.89; C 2.9; P 1.52; S 1.88; D 3.6; Q 1.72; R 4.48
V16: H 2.69; E 2.65; Q 1.52; C 3.82; K 3.3; M 3.58; P 1.99; F 3.88; G 2.55; D 1.93; A 2.35; L 2.38; R 3.68; S 1.87; N 1.51; Y 2.6
W3: P 1.7; Q 2.35; Y 2.57; E 1.91; V 2.08; F 2.59; R 1.97; N 1.31; I 2.66; H 1.02; S 2.1; T 1.46; G 1.77
A17: R 1.47; F 1.58; M 2.92; H 2.23; I 3.65; T 2.28; N 1.22; Q 3.33; D 1.78; P 2.37; K 2.28
V9: W 2.98; A 3.1; S 2; D 2.06; C 3.09; K 2.56; L 2.45; R 1.55; P 1.6; Q 1.43; I 4.2; E 1.46; Y 2.1; T 2.65; G 3.82
Q6: E 3.28; G 1.7; T 2.6; Y 2.07; V 2.79; H 3.77; A 1.78; C 2.98; N 2.38; P 2.54; K 3.19; S 2.46; F 2.83; R 4.19; M 2.02; D 2.28
